# Assay results: the supplement of paper PMC7877785
# ± gives the uncertainty stated by the source.
# Experiment: self-splicing fitness, log relative to wild type (ln ratio); higher = more splicing; Tetrahymena group I intron in knt gene, E. coli kanamycin selection, DiMSum; sequences stand for … in CUCUCU…GGAGGGAAAAGUUAUCAGGCAUGCACCUGGUAGCUAGUCUUUAAACCAAUAGAUUGCAUCGGUUUAAAAGGCAAGACCGUCAAAUUGCGGGAAAGGGGUCAACAGCCGUUCAGUACCAAGUCUCAGGGGAAACUUUGAGAUGGCCUUGCAAAGGGUAUGGUAAUAAGCUGACGGACAUGGUCCUAACCACGCAGCCAAGUCCUAAGUCAACAGAUCUUCUGUUGAUAUGGAUGCAGUUCACAGACUAAAUGUCGGUCGGGGAAGAUGUAUUCUUCUCAUAAGAUAUAGUCGGACCUCUCCUUAAUGGGAGCUAGCGGAUGAAGUGAUGCAACACUGGAGCCGCUGGGAACUAAUUUGUAUGCGAAAGUAUAUUGAUUAGUUUUGGAGUACUCGUGGUCG
# Outline: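 Fitness was computed with DiMSum as the error-weighted combination of replicate fold changes, kanamycin versus none, each normalised to wild type. The library randomised all eight intron nucleotides of the P1ex region, with the intron placed in the knt kanamycin-resistance gene on pET-22b(+) in E. coli BL21(DE3). Six replicate transformations were grown overnight at 37°C or 30°C on LB agar with or without 25 μg/mL kanamycin, plus 100 μg/mL carbenicillin, 50 μM IPTG and 0.2% rhamnose. Pooled colonies were amplicon-sequenced on an Illumina HiSeq 2500.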
Sequence,self-splicing fitness (ln) (30 °C),self-splicing fitness (ln) (37 °C)
UGGUAGCAAUAUUACGCGUG,-0.581 ± 0.087,0.251 ± 0.1
UGGUAGCAAUAUUACGGACA,-0.879 ± 0.12,0.135 ± 0.16
UGGUAGCAAUAUUACGGAGA,,-1.24 ± 0.2
UGGUAGCAAUAUUACGGAUG,-1.34 ± 0.15,0.065 ± 0.13
UGGUAGCAAUAUUACGGCAA,-1.14 ± 0.086,0.277 ± 0.1
UGGUAGCAAUAUUACGGCGA,-0.171 ± 0.19,0.49 ± 0.15
UGGUAGCAAUAUUACGGGAG,-3.82 ± 0.43,-1.6 ± 0.13
UGGUAGCAAUAUUACGGGCG,0.0756 ± 0.11,0.475 ± 0.12
UGGUAGCAAUAUUACGGUGG,-3.53 ± 0.2,-1.94 ± 0.14
UGGUAGCAAUAUUACGUAAA,-1.01 ± 0.099,-0.497 ± 0.11
UGGUAGCAAUAUUACGUACC,-2.93 ± 0.42,-2.31 ± 0.49
UGGUAGCAAUAUUACGUACU,0.209 ± 0.34,
UGUAAGCAAUAUUACGAAAG,-3.6 ± 0.25,-2.75 ± 0.34
UGUAAGCAAUAUUACGAACC,-0.477 ± 0.22,0.667 ± 0.32
UGUAAGCAAUAUUACGAACG,0.23 ± 0.13,0.542 ± 0.13
UGUAAGCAAUAUUACGCAGA,-3.67 ± 0.42,-1.72 ± 0.34
UGUAAGCAAUAUUACGCGGG,-4.06 ± 0.29,-0.563 ± 0.15

Sequence,self-splicing fitness (ln) (30 °C),self-splicing fitness (ln) (37 °C)
UGUAAGCAAUAUUACGCUAA,-2.73 ± 0.21,-0.75 ± 0.15
UGUAAGCAAUAUUACGCUAG,-1.82 ± 0.1,-0.0644 ± 0.099
UGUAAGCAAUAUUACGGCCC,-2.98 ± 0.38,
UGUAAGCAAUAUUACGGCGG,-0.367 ± 0.098,-0.217 ± 0.12
UGUAAGCAAUAUUACGGGGU,-3.75 ± 0.31,-2.24 ± 0.28
UGUAAGCAAUAUUACGGUCA,-0.349 ± 0.08,0.113 ± 0.12
UGUAAGCAAUAUUACGGUUG,-1.14 ± 0.096,-0.58 ± 0.1
UGUAAGCAAUAUUACGUAUA,-1.21 ± 0.097,-0.761 ± 0.12
UGUAAGCAAUAUUACGUCAG,-1.14 ± 0.093,-0.0311 ± 0.11
UGUAAGCAAUAUUACGUGAU,-3.5 ± 0.18,-2.05 ± 0.17
UGUAAGCAAUAUUACGUGGA,-2.52 ± 0.25,-1.78 ± 0.22
UGUAAGCAAUAUUACGUGUA,-1.52 ± 0.077,-0.97 ± 0.093
UGUAAGCAAUAUUACGUUCC,-4.53 ± 0.33,-0.21 ± 0.19
UGUCAGCAAUAUUACGAAGC,-3.79 ± 0.18,-0.785 ± 0.17
UGUCAGCAAUAUUACGAAGU,-4.02 ± 0.46,-1.93 ± 0.24
UGUCAGCAAUAUUACGAAUA,-0.932 ± 0.14,-1.03 ± 0.11
UGUCAGCAAUAUUACGACGU,-1.31 ± 0.098,-0.968 ± 0.14
